From publication PMC11326238 (bioRxiv, 2024)

Tests used:
[1] = molecular target: recombinant AMY3 (α-amylase3) lacking the chloroplast transit peptide, purified (Arabidopsis) (UniProt Q94A41); assay: SEC-MALS + other: SAXS
cross-linking = molecular target: the molecule itself; assay: cross-linking

Molecule	stoichiometry N (BAM9 per AMY3 (heterodimer)) [1]	stoichiometry N (cross-linking)
recombinant BAM9 (β-amylase9), purified (from UniProt Q8VYW2 1-536) (natural protein)	1	
recombinant AMY3 (α-amylase3) lacking the chloroplast transit peptide, purified (enzyme, Arabidopsis, UniProt Q94A41 56-887, looked up) SMNKSPVAIRATSSDTAVVETAQSDDVIFKEIFPVQRIEKAEGKIYVRLKEVKEKNWELSVGCSIPGKWILHWGVSYVGDTGSEWDQPPEDMRPPGSIAIKDYAIETPLKKLSEGDSFFEVAINLNLESSVAALNFVLKDEETGAWYQHKGRDFKVPLVDDVPDNGNLIGAKKGFGALGQLSNIPLKQDKSSAETDSIEERKGLQEFYEEMPISKRVADDNSVSVTARKCPETSKNIVSIETDLPGDVTVHWGVCKNGTKKWEIPSEPYPEETSLFKNKALRTRLQRKDDGNGSFGLFSLDGKLEGLCFVLKLNENTWLNYRGEDFYVPFLTSSSSPVETEAAQVSKPKRKTDKEVSASGFTKEIITEIRNLAIDISSHKNQKTNVKEVQENILQEIEKLAAEAYSIFRSTTPAFSEEGVLEAEADKPDIKISSGTGSGFEILCQGFNWESNKSGRWYLELQEKADELASLGFTVLWLPPPTESVSPEGYMPKDLYNLNSRYGTIDELKDTVKKFHKVGIKVLGDAVLNHRCAHFKNQNGVWNLFGGRLNWDDRAVVADDPHFQGRGNKSSGDNFHAAPNIDHSQDFVRKDIKEWLCWMMEEVGYDGWRLDFVRGFWGGYVKDYMDASKPYFAVGEYWDSLSYTYGEMDYNQDAHRQRIVDWINATSGAAGAFDVTTKGILHTALQKCEYWRLSDPKGKPPGVVGWWPSRAVTFIENHDTGSTQGHWRFPEGKEMQGYAYILTHPGTPAVFFDHIFSDYHSEIAALLSLRNRQKLHCRSEVNIDKSERDVYAAIIDEKVAMKIGPGHYEPPNGSQNWSVAVEGRDYKVWETS		2
